Assay results from patent US20170360931A1 (UNIVERSITY OF CHICAGO, published 2017).

Assays:
Test in all cases: cell-based or functional assay
[1] = biological target: HA of wild type A/Shanghai/1/2013 (H7N9) virus (influenza A virus A/Shanghai/1/2013 …)
[2] = biological target: HA of A/chicken/Jalisco/12283/12 (H7N3) virus (influenza A virus …)
[3] = biological target: HA of A/California/04/2009 (H1N1) virus (influenza A virus A/California/04/2009 …)

B1: 045-051310-2B06 (antibody, V domains shown)
VH: QVQLVQSGPEMKKPGASVKVSCKTSGYRFTRYGISWVRQAPGRGLEWLGWISAYSGDTYYGQKFQDRVTMTTDRATSTAYMELRNLGSDDSAVYFCARDHVQGEVSIYYYAMDVWGEGTTVTVSS
VL: EIVLTQSPATLSLSPGERVTLSCRASESVGNKLAWFQQRPGQAPRLLIYNASNRATDIPARFSGSGSGTDFTLTISSLQPEDFAVYYCQQRGTWPRGLITFGQGTRLEIK
PRNT50 (plaque reduction assay) [1]: 19 µg/mL
PRNT50 (plaque reduction assay) [2]: 18 µg/mL
PRNT50 (plaque reduction assay) [3]: 5.5 µg/mL
